According to patent US10087225B2, “Formulation of MK2 inhibitor peptides” (MOERAE MATRIX, INC., priority 2015, dated 2018):

How the values were obtained:
Assay in all cases: Kinase Profiling Assay
Type in all cases: biochemical
Details in all cases: for % activity: 100 μM
[1] = target: T1, ASK1(h) (Homo sapiens, UniProt Q99683)
T1 sequence (Q99683 1-1374): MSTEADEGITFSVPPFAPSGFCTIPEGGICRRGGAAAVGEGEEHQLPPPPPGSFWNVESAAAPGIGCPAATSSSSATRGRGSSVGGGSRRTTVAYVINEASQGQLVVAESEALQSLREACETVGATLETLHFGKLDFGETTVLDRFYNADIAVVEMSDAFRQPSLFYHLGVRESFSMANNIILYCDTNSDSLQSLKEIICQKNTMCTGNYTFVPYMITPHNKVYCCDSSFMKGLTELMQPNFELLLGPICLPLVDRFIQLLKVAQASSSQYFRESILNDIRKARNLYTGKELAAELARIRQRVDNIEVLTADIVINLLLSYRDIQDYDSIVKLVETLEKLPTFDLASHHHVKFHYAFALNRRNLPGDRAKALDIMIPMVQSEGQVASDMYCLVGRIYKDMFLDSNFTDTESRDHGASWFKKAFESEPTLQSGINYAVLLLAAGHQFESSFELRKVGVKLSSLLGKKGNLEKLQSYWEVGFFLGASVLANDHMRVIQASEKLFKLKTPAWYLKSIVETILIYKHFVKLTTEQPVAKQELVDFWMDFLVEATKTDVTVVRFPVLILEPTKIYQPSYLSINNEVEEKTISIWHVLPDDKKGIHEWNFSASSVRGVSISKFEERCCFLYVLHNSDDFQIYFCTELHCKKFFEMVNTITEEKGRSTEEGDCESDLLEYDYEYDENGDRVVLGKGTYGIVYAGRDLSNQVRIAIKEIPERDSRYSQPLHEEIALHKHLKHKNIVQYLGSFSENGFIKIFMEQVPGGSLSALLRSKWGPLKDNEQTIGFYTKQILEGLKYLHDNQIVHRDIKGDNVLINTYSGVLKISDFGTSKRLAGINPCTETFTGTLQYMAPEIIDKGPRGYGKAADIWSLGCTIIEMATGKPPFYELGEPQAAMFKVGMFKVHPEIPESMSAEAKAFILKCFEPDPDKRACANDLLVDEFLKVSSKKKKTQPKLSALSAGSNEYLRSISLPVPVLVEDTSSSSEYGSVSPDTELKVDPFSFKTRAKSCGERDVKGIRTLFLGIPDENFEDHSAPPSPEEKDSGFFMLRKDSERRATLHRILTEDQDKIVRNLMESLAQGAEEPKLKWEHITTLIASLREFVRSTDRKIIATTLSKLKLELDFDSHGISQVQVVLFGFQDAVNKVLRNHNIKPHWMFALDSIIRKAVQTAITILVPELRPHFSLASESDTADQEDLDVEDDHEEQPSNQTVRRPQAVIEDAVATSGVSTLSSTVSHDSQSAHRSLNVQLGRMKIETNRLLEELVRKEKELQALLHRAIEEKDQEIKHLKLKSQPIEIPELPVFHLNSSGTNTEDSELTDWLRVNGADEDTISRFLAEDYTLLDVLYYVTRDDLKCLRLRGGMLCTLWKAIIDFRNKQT

[2] = target: T2, BrSK1(h) (Homo sapiens, UniProt Q8TDC3)
T2 sequence (Q8TDC3 1-778): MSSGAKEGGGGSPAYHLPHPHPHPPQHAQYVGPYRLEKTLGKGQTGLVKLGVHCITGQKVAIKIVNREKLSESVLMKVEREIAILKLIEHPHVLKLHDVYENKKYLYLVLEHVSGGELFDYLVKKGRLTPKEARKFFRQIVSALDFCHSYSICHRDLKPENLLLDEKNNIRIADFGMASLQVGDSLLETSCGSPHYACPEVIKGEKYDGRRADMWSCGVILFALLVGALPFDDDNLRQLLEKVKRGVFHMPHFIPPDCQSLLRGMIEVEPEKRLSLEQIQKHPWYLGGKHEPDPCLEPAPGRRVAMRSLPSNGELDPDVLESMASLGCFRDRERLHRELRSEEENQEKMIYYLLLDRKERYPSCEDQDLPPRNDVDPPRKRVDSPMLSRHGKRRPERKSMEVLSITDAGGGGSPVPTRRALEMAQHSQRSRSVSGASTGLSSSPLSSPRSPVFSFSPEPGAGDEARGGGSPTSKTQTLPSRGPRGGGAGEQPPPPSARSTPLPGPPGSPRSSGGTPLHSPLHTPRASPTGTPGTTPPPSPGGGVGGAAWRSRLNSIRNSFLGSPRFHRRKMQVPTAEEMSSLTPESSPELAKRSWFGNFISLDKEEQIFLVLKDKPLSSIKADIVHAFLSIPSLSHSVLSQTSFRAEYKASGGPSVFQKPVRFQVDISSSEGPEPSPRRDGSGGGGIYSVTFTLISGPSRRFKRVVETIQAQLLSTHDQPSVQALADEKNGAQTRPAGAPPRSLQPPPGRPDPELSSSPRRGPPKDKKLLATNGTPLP

[3] = target: CHK2(I157T)(h) (Homo sapiens, UniProt O96017, I157T)
[4] = target: MAPKAP-K2(h) (Homo sapiens, UniProt P49137)
[5] = target: T3, Tec(h)activated (Homo sapiens, UniProt P42680)
T3 sequence (P42680 1-631): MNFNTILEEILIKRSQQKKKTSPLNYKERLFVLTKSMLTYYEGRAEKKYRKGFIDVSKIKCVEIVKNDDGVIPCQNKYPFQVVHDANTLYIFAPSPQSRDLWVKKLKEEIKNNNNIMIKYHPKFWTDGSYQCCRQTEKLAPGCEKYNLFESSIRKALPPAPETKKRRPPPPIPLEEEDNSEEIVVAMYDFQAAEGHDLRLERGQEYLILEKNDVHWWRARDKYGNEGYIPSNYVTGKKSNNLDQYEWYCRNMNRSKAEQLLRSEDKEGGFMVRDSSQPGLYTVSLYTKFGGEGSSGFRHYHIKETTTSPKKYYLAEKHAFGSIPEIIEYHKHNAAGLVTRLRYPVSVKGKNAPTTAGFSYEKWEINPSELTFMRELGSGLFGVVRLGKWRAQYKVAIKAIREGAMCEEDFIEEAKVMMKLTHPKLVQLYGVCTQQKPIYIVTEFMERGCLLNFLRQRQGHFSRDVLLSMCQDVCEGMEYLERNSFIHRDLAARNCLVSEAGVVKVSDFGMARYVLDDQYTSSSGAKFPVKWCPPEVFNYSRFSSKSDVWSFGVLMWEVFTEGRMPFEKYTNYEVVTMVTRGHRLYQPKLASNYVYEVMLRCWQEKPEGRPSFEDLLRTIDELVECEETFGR

[6] = target: TrkB(h) (Homo sapiens, UniProt Q16620)

CHK2(I157T)(h), sequence (O96017 whole entry I157T): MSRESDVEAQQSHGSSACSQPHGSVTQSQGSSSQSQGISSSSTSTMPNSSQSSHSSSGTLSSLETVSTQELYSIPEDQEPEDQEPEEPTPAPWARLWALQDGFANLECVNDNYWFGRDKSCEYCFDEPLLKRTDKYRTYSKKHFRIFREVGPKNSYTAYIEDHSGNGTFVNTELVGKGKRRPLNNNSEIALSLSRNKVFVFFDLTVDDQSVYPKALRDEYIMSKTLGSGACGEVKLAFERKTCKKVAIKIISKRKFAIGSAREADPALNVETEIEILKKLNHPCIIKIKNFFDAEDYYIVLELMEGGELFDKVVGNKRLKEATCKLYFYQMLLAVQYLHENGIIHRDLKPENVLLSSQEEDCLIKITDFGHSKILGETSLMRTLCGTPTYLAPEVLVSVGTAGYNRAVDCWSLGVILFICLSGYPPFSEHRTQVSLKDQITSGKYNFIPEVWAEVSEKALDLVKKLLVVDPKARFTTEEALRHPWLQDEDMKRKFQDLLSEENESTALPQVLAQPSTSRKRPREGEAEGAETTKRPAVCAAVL
MAPKAP-K2(h), sequence (P49137 whole entry): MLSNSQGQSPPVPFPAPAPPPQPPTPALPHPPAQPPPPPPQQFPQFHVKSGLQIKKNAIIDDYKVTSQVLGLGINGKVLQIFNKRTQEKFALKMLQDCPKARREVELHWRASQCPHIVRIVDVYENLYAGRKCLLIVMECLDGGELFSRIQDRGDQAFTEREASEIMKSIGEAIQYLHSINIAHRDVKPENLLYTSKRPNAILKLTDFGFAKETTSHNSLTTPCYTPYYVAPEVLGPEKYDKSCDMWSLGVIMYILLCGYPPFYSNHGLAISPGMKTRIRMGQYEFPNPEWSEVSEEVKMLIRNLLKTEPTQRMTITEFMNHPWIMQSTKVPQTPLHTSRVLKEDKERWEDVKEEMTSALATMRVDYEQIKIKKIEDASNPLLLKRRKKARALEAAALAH

Substance | activity at 100 µM [1] [%] | activity at 100 µM [2] [%] | activity at 100 µM [3] [%] | activity at 100 µM [4] [%] | activity at 100 µM [5] [%] | activity at 100 µM [6] [%] | % activity [1] [%] | % activity [2] [%] | % activity [3] [%] | % activity [4] [%] | % activity [5] [%] | % activity [6] [%]
H-YARAAARQARAKALARQLGVAA-OH [MMI-0100] | 100 | 100 | 97 | 19 | 100 | 4 | – | – | – | – | – | –
HRRIKAWLKKIKALARQLGVAA (Mammalian) [MMI-0500] | – | – | – | – | – | – | -4 | 72 | 3 | 9 | 33 | 12
YARAAARQARAKALNRQLGVA (Mammalian) [MMI-0200] | – | – | – | – | – | – | 101 | 93 | 85 | 35 | 77 | 7
